The record followed here is article PMC9377714, “Unconventional tonicity-regulated nuclear trafficking of NFAT5 mediated by KPNB1, XPOT and RUVBL2” (Journal of Cell Science, 2022).

Holding throughout (conditions): both partners purified
The target of assay [1] is T1, His–KPNB1 (UniProt Q14974 1-876).
T1 construct: KPNB1 (karyopherin β1, importin β1), full length, in a modified pET 30a vector; In the pull-down it was held on Ni-NTA by the His tag; also called full-length KPNB1; source: E. coli BL21 (DE3), purified (HisTrap HP)
Briefly: ITC; NFAT5 fragment at 1.5–1.75 mM titrated into 50 μM full-length KPNB1; 50 mM Tris-HCl pH 8.0, 150 mM NaCl; MicroCal PEAQ-ITC.

Assay [2] has as its target T1, His–KPNB1. Briefly: pull-down; His–KPNB1 immobilised on Ni-NTA agarose, GST fusion proteins added, 4°C overnight; washes with 20 mM sodium phosphate, 100 mM NaCl, 40 mM imidazole, 10% glycerol; SDS–PAGE and Coomassie Blue.
Assay [3] addresses T1, His–KPNB1. Kind of assay: ITC; NFAT5_(171–253) at 600 μM titrated into 20 μM full-length KPNB1; 10 mM Na2HPO4, 1.8 mM KH2PO4, 2.7 mM KCl, pH 7.4, 150 mM NaCl; MicroCal PEAQ-ITC. In general terms: Isothermal titration calorimetry measures the heat released or taken up as one component is titrated into another.

T1 sequence (Q14974 whole entry): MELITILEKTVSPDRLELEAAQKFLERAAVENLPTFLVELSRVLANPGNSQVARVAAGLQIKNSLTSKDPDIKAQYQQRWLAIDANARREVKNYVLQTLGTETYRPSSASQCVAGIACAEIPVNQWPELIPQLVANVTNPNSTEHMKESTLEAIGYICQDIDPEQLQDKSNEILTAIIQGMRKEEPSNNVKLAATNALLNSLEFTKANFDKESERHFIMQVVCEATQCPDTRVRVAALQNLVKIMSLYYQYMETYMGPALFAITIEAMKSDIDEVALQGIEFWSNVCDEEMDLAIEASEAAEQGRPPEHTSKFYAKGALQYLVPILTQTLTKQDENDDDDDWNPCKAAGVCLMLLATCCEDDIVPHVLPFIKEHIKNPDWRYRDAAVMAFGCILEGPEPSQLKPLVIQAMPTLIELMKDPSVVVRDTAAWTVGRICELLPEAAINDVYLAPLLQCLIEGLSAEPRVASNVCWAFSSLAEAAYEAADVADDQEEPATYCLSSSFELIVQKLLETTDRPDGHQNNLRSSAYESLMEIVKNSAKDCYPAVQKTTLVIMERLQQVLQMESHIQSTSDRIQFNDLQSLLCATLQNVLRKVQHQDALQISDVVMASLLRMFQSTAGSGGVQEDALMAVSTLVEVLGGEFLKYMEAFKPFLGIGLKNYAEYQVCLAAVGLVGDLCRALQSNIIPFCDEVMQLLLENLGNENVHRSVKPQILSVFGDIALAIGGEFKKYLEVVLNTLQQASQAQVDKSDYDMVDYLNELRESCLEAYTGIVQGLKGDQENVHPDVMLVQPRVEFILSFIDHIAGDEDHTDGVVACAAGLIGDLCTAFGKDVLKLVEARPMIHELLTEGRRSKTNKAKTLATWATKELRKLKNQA

B1: NFAT5_(151–216) (domain or fragment, UniProt O94916 151-216, looked up)
chain: LLDNSRMSCQDEGCGLESEQSCSMWMEDSPSNFSNMSTSSYNDNTEVPRKSRKRNPKQRPGVKRRD
notes: source: E. coli BL21 (DE3), purified
Usually Kd stands for the concentration at which binding is half-saturated. A high value points to weaker binding. In the assay with His–KPNB1 [1], B1 showed a Kd of approximately 1300 nM.

B2: GST–NFAT5_(171–250) (domain or fragment, UniProt O94916 171-250, looked up)
chain: SCSMWMEDSPSNFSNMSTSSYNDNTEVPRKSRKRNPKQRPGVKRRDCEESNMDIFDADSAKAPHYVLSQLTTDNKGNSKA
notes: also called NFAT5-NLS; source: E. coli BL21 (DE3), purified (glutathione Sepharose); not shown: GST, N-terminal, kept
With B2, in the assay with His–KPNB1 [2], the binding result is reported as “binds”.

B3: GST–NFAT5_(190–250) (domain or fragment, UniProt O94916 190-250, looked up)
chain: SYNDNTEVPRKSRKRNPKQRPGVKRRDCEESNMDIFDADSAKAPHYVLSQLTTDNKGNSKA
notes: NFAT5 residues 190-250, cloned at the C terminus of GST in pGEX-4T-1; source: E. coli BL21 (DE3), purified (glutathione Sepharose); not shown: GST, N-terminal, kept
B3: the binding result in the assay with His–KPNB1 [2] is given as “binds”.

B4: NFAT5_(189–216) (domain or fragment, UniProt O94916 189-216, looked up)
chain: SSYNDNTEVPRKSRKRNPKQRPGVKRRD
notes: also called NFAT5-cNLS; source: E. coli BL21 (DE3), purified
On to B4, for which, in the assay with His–KPNB1 [1], the Kd is approximately 1500 nM.

B5: NFAT5_(171–253) (domain or fragment, UniProt O94916 171-253, looked up)
chain: SCSMWMEDSPSNFSNMSTSSYNDNTEVPRKSRKRNPKQRPGVKRRDCEESNMDIFDADSAKAPHYVLSQLTTDNKGNSKAGNG
notes: as for B1
Regarding B5, the Kd in the assay with His–KPNB1 [3] is approximately 1200 nM.

B6: GST–NFAT5_(171–220) (domain or fragment, UniProt O94916 171-220, looked up)
chain: SCSMWMEDSPSNFSNMSTSSYNDNTEVPRKSRKRNPKQRPGVKRRDCEES
notes: source: E. coli BL21 (DE3), purified (glutathione Sepharose); not shown: GST, N-terminal, kept
In the case of B6, in the assay with His–KPNB1 [2], the binding result is recorded as “binds”.
